Measured values published in the DeepSol protein solubility set.

test: soluble on expression in E. coli; label from the status in PepcDB or PDB records

| Sequence | soluble on expression in E. coli |
| --- | --- |
| MEVKALAHAKNDSVAVATDDLKEGEEIQVAFLDNNEKTKITTAEVIPLGHKISLKDIKKGENVIEYGEVIGAATKDIKRGEHVHIHNIKSLRW | not soluble |
| MGSDKIHHHHHHMQNPFTLTFGRSPLESVDRPVQINEIIENFTADTINQQMFIITGVRGSGKTVMMTEISHRLRENDDWVVIELNPATELLPAMLSKLNSDNICAGLIKSAKLDLSFFGFGVSIEGTQPITDAETAIIKILERLKKSGKRLLITIDEMTNSEYMKVFAGAFQIFVRQELPVFLLGTGLYENIEELQNEKSLTFLYRAPKIQLKPLNNAAIINKYKTIFNISPEKAAQMAGLTKGYPFAFQVLGYLTWNNGGDYNGILGEYEQYLSEFVYDKIWSELSQKDRMVAKGIADVQSGKIKEIRDAIGMETNEFNPYRKRLIKKGIVSGEIRGYVYFTLPLFEEYVIENY | not soluble |
| MNALDLDVLQHARDWLASGRRVHLVTVVQTWGSAPRQAGAMLAVRDDGQVVGSVSGGCIEDDLIARARAGTLPERAERLTYGVTRDEATRFGLPCGGTLRLVAEPLAPRDAWLDEVLQAIAEHRLVRRTIDLHTGAAALEAAAPAEGPDFDGRMFRAVYGPHWRLLIIGANQTAQVRADIAATLDFQVIVCDPREEFHAAWHAPHATLVTTMPDDTVLEIGTDERTAIVALTHDPKLDDMVLLEALKSRAFYVGALGSRANQEKRRERLRLFDLGDEDIARLRGPVGLPIASRTPAEIAVAVAAELVWVRNTLGDREPSGAPLPAALAPAR | not soluble |
| MIMRWGEKRYHSLDYELKQMFKEKVYKIALNGGMTCPNRDGHVGTGGCIFCSSQGSGDFAGSARLSIAEQIRQGKADISSKRPVHSYIAYFQAFTNTYAPVETLRALYMEAIADPEVKILSIATRPDCLGADVLALLDEINQIKPVWVELGLQTIHPETSAYIRRGYELSVFEQAVKELRAIGITVIVHTILYLPGETKDDMLDTIHYLNHMDIQGIKLQLLHVLTHTDLAADYEKHPFYIPDMQDYIQFLGTCIAHLNPEIVIHRLTGDGPKDLLIAPLWTSNKRTVLNQLHSHLKEQDIWQGKEYYV | not soluble |
| MLCVRRRCISAPMTDTTILPRPEVSGDFLVAALYHFARLPRFESLREQLFELCQKNGVKGTLLLAAEGINGTIAGPDAGVQAVLSFLRAQPEFAALEHKESRASHMPFVRLKVKLKKEIVTMGVPDIDPNRIVGTYVDPRDWNALISDPDTIVIDTRNDYETAIGVFKGAVDPQTKTFREFPDWVKNNPGLHNKPKIAMYCTGGIRCEKATAFMKEQGFDEVYHLKGGILKYLEEVPEEESLWEGACFVFDERVSVVHGLAEGDHQLCHACRNPITPDVRLSPKFEEGVSCPSCYDERSEDDRQRFRDRQQQIELAKTRGERHLGRLEHHHHHH | soluble |
| MGSDKIHHHHHHMDQKALSMFAHLSQTLHFGKTALAHHISPSTLSRAIQRLEDEVGGELLHRDNRTVVLTDVGKKFKIYAEQQLEQWHSFKQSLDHKQAALTGKLHIYCSVTAAYSHLPPLLERFRARHPLVEIMLTTGDAADALEQVQNQSVDFAIAAAPENLPRSVYFHHLDTIALTVIAPTMTCKVQQQLSQKVLTWSEIPIILPEHGAARKRFELWYRKKQQGKPTIYATVSGHEALVSMVALGCGVGIVPQVVVDNSPVKDRVSNLENIGDIEPFELGVCCLNQAKAQPLIKAFFSSIV | not soluble |
| MTDHNLLPEPKKILWRVSELNRNARVILEQTFPLLWVSGEISNLKRYPSGHWYFSLKDDSAQVRCVMFRHKNLYLDWIPQEGMQVEAQALVTLYEARGEFQLTVEQLRRAGLGALFEAFERLKARLQQEGLFSPEYKQPLPRFPRQIGIITSPNTAALRDVLTTLQLRLPSIPVVIYPAPVQGEGSAAAITTALHTAAVRGECDVLILCRGGGSIEDLWAFNEEIVARAIAACPIPIVTGIGHETDFTIADFVADARAPTPTGAAQLASPDRQAILHRLQYWLHRLQQTMERHIERRMQATDLLAHRLIHPGERIRHQQMHLLQLRGRLQNAWNRQVEIRTWRIEETGRRIHSAKPDIQAGIRHQQELAARLQRAMAHRLENLQFKLRQQQQHLIHLDPKAVLARGYSIAYTARGDILHDSRQTRAGDNVRLVFASGWAKADITETGE | not soluble |
| MGHHHHHHSHMEELLPDGQIWANMDPEERMLAAATAFTHICAGQGEGDVRREAQSIQYDPYSKASVAPGKRPALPVQLQYPHVESNVPSETVSEASQRLRKPVMKRKVLRRKPDGEVLVTDESIISESESGTENDQDLWDLRQRLMNVQFQEDKESSFDVSQKFNLPHEYQGISQDQLICSLQREGMGSPAYEQDLIVASRPKSFILPKLDQLSRNRGKTDRVARYFEYKRDWDSIRLPGEDHRKELRWGVREQMLCRAEPQSKPQHIYVPNNYLVPTEKKRSALRWGVRCDLANGVIPRKLPFPLSPS | not soluble |
| LQELETAVAETGFSRFPVTGKDGSYLGYVHIKDVLDRFDHSSPDTIIHRSEIRPLIIVDAAGTMDEALQSMHSKSAHMAQVRDRGLLLGVITLEDLIEEYVGTFSDWTHEQS | not soluble |
| MKIIDFRLRPPAMGFLNARIYTRPDIRNRFTRQLGFEPAPSAEEKSLELMFEEMAAAGIEQGVCVGRNSSVLGSVSNADVAAVAKAYPDKFHPVGSIEAATRKEAMAQMQEILDLGIRIVNLEPGVWATPMHVDDRRLYPLYAFCEDNGIPVIMMTGGNAGPDITYTNPEHIDRVLGDFPDLTVVSSHGNWPWVQEIIHVAFRRPNLYLSPDMYLYNLPGHADFIQAANSFLADRMLFGTAYPMCPLKEYTEWFLTLPIKPDAMEKILHGNAERLLAQAGRLEHHHHHH | not soluble |
| MISTANITQQFGAKPLFENISVKFGEGNRYGLIGANGCGKSTFMKILSGELEPTGGNVSYDPNERVAKLNQDQFAYEEFTVIDTVIMGHKELWEVKQERDRIYSLPEMSEEDGMKVADLEVQFAEMDGYMAEAKAGELLLAVGIPMEQHFGLMSEVAPGWKLRVLLAQILFADPDIMLLDEPTNNLDMDTIRWLEDTLNARNCTMIIISHDRHFLNSVCTHMADLDYGELRVYPGNYDEYMTAASQARERLLSDNAKKKAQIAELQTFVARFSANASKAKQATSRAKQIDKIKLDEVKASSRQNPFIRFEQSKELFRNA | not soluble |
| MQQQETFRHILSVLVQDVDGIISRVSAMFTRRSFSLVSFVSGKTEMHGINRITIVVDASTQDIEQITKQLNKLIPVLKVVRLDEDVTVARALMLVKVSADASNRPQVVDAAKIFRAHVVDVAPDSVVIEATGNKGKLRALLDVLEPFGIRELISSGQIALNRGSKTMAPQSSRS | not soluble |
| MQGQHPPAELPSLRRQKILLLLERDGKVMAAELSRHFAVSEDTIRRDLAELDAGGLVQRVHGGALPRPKDSGKDYFTRVGETNEAKLRLAQYAVQWVQDGQTVLFDSGSTTLHIAQSLPAGISLTAVTASPMIAVALAEYPKVRVILAGGQLNPATLSASGHEALRMIQGIKADLMFTGVCAIHPEIGISSLHFDEVPIKQAMFDSASEVIAVTTADKLGAMEPFVVVPCNRLHRLVTEQEAPGVDIEGYRQLGIEVLQVLEHHHHHH | not soluble |
| MMQALTYYRDLAANTMPGSNDIMEVKDAFMNGTAPMAIYSTYILPAVIKEGDPKNVGFVVPTEKNSAVYGMLTSLTITAGQKTEETEAAEKFVTFMEQADNIADWVMMSPGAALPVNKAVVTTSTWKDNDVIKALGELPNQLIGELPNIQVFGAVGDKKFTRMGDVTGSGVVSSMVHNVTVGKADLPGTLQTSQKKLDELIEQH | not soluble |
| GSQEVRRGDFVRNWQLVAAVPLFQKLGPAVLVEIVRALRARTVPAGAVICRIGEPGDRMFFVVEGSVSVATPNPVELGPGAFFGEMALISGEPRSATVSAATTVSLLSLHSADFQMLCSSSPEIAEIFRKTALERRGAAASA | soluble |
| MSLKHHGKIKIKHAVKVLKVSRSGFYEYMHRRPSKQQVEREILSEKIKAVFHEHKGRYGAVRITKVLHNTGIMTNTKRVGKLMHLMGLYAKGSRYKYKHYNRKGASLSRPNLINQIFKATAPNKVWLGDMTYIPTKEGTLYLAVNIDVFSRKIVGWSMSSRMQDKLVRDCFLQACGKEHPQPGLIVHTDQGSQYTSSRYQSTLRQVGAQSSMSRKGNPYDNAMMESFYKTLKRELINDAHFETRAEATQEIFKYIETYYNTKRMHSGLDYKSPKDFEKYNSEGHHHHHH | not soluble |
| VGKLQKREYSHEVNDEDLRKKVHDECYARAYEVATSGTGKHERGEAFEKIVEEFKAQYTEEELAEKAEMIARYYHDVEKEAMRRAILDEGKRLDGRKTTEIRP | not soluble |
| MFEAEIDCNIPGALWCGELYVLEQDVVFPDLLRIDRFCTSKSKKMFRFDVYPGSDFPTVDLELTYKFNHNCSADGETYCVKPKWSKKVNGRVGQSVGFDIDARPHGKPSRCKPPFYF | not soluble |
| MSVKVAFIRHHNLWIKVDGKEIQITKGEYITGPKWSYDGEWLAYVKGKKQSILELYRLKDGKKVTPFHSEASNYQWSPTENIIAFIFTGTLNTFDVEKKNADFENVSAGVGDYAWYPDGKNFLVSSEAHLLPTGWTGAQLYEVQKDAHMNPHKMKHLYALPNEHDDFLALVASGFKWSPDQKWISFLAVPTASWSADSNTLCLVRADGSRFEKVDQMLLNAQWFQWAPSKNILAYIEGSGRVALENKHLKVKELPALQQNIFTPKGYVDWDFVWKNDRVIIVSRAKEAGIETPPEKRPLPSLYEVDSTSNAQHQITKKTNKQGDYHPIFMKKSNQLIWIRSDRKKADVWLAHKDRKQEKKWIENIDVPAWYYEKWNWGNVISVKEELEHHHHHH | soluble |
| VMHSSLYTSVDDKLHGLSENPQAVIQLAINRATEEIKDLENARADASKVEIKPNVSSNTEVILFDKDFTQLLSGNRFLGLDKIKLEKKELGHIYQIQVFNSYGQEEIYRVILMETNISSVSTNIKYAAVLINTSQLEQASQKHEQ | not soluble |
| MGSDKIHHHHHHMFCKVMKIGISCHHTYGGSGAVATELGKALAMKGHTVHFFSQAAPFRLGLYSRNIYCHEIEAMNYPLFETPYHSLALASKIAEVAFYEKLDVVHAHYAIPHAISAMLARQMLEEKCPAAECFRIVTTLHGTDITIVGADRSMSDAVRLAINKSDGVTAVSGYLRDETIRMFTPRKKIEVIHNFVDTAVFKRLPGRRDLLGLDGGKVVIHISNFRPVKRIMDVLAVFESIRREIPATLLLVGDGPDRSEAETWVRNYGIGDRVRFLGKLDDIVPLLSIADLMLMPSNVESFGLAALEAMACGVPVVVTDAGGFPEFVRQGVDGFRHPHGDIEGMSRSALSILRDDEVWQRFSGAAANQAGRFKTALKVKEYEAFYRRLIDEARERKAQ | not soluble |
| MGSDKIHHHHHHAIVSAKWERTSSLQGIQLKQASIEGLFGGKQSISILTIGRAEGYTAFIATTDSLTTTSQLAEQSRSSAAINGSYFSIKEGFSTCYLRKNEAVIDTTTTEERHLRVNGAVHMVDNNIRIIPWNDENEKKGFPLDGDILASGPLLMQDGKTCDFTTIDREFSETRHPRSAIALTKEGDIMLVAVDGRAEGHADGMSIAELAYLLRILKAHCALNLDGGGSTTLWVNGQVVNHPSDNKKFDNKGERKVHNIIAVRRLTNP | not soluble |
| MSFVVIIPARFSSTRLPGKPLVDINGKPMIVHVLERARESGAERIIVATDHEDVARAVEAAGGEVCMTRADHQSGTERLAEVVEKCGFSDDTVIVNVQGDEPMIPAVIIRQVAENLAQRQVGMATLAVPIHSAEEAFNPNAVKVVLDAEGYALYFSRATIPWDRDRFAKSLETVGDTCLRHLGIYGYRAGFIRRYVSWQPSPLEHIEMLEQLRVLWYGEKIHVAVAKAVPGTGVDTADDLERVRAEMR | not soluble |
| MAHRAFIQVIITGTQVFGKAFAEAYRQAASQSVKQGATNASRRGTGKGEYGGITLDESCKILNIEESKGDLNMDKINNRFNYLFEVNDKEKGGSFYLQSKVYRAAERLKWELAQREKNAKAKAGDASTAKPPPNSTNSSGADNSASSNQ | not soluble |
